The target of the assay is T1, Recombinant human VEGFR2-Fc (human, UniProt P35968 20-764).
T1 construct: VEGF receptor-2 (VEGFR2, KDR), human; Probably the extracellular domain fused to an IgG Fc; In the functional rows this id stands for the whole VEGFR2 on HUVECs or PAE/KDR cells; also called VEGF receptor-2; KDR; source: bought: BioLegend
Briefly: SPR; BIAcore, 20 °C; VEGFR2-Fc (50 µg/mL in 10 mM sodium acetate, pH 4.5) coupled to an EDC/NHS-activated CM5 chip; anosmin-1, its mutant or VEGF-A injected in PBS with 0.35 M NaCl at 30 µL/min; affinity calculated from the on- and off-rates. To be noted: both partners purified.

T1 sequence (P35968 20-764): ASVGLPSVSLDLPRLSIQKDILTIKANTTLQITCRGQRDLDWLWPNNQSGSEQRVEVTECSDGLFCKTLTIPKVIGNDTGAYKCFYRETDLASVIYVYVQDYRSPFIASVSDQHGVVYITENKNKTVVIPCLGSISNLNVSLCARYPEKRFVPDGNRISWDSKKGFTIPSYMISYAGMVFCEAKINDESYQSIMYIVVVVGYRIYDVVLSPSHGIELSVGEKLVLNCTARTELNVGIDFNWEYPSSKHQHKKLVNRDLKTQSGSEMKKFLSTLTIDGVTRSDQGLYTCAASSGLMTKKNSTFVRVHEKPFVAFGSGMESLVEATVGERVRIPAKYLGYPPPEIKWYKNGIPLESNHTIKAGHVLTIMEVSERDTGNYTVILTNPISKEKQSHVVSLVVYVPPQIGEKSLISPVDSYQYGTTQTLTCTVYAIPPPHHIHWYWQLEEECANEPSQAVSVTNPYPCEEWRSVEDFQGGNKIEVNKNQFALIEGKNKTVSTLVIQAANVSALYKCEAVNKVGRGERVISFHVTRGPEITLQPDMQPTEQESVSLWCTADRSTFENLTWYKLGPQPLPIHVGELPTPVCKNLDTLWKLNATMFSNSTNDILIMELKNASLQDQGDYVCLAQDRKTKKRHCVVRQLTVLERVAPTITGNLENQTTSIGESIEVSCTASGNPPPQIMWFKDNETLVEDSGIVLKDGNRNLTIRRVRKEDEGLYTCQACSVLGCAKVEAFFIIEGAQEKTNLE

B1: Recombinant human anosmin-1 wild-type (natural protein, UniProt P23352 25-680, looked up)
chain: AGPGAAAARRLDESLSAGSVQRARCASRCLSLQITRISAFFQHFQNNGSLVWCQNHKQCSKCLEPCKESGDLRKHQCQSFCEPLFPKKSYECLTSCEFLKYILLVKQGDCPAPEKASGFAAACVESCEVDNECSGVKKCCSNGCGHTCQVPKTLYKGVPLKPRKELRFTELQSGQLEVKWSSKFNISIEPVIYVVQRRWNYGIHPSEDDATHWQTVAQTTDERVQLTDIRPSRWYQFRVAAVNVHGTRGFTAPSKHFRSSKDPSAPPAPANLRLANSTVNSDGSVTVTIVWDLPEEPDIPVHHYKVFWSWMVSSKSLVPTKKKRRKTTDGFQNSVILEKLQPDCDYVVELQAITYWGQTRLKSAKVSLHFTSTHATNNKEQLVKTRKGGIQTQLPFQRRRPTRPLEVGAPFYQDGQLQVKVYWKKTEDPTVNRYHVRWFPEACAHNRTTGSEASSGMTHENYIILQDLSFSCKYKVTVQPIRPKSHSKAEAVFFTTPPCSALKGKSHKPVGCLGEAGHVLSKVLAKPENLSASFIVQDVNITGHFSWKMAKANLYQPMTGFQVTWAEVTTESRQNSLPNSIISQSQILPSDHYVLTVPNLRPSTLYRLEVQVLTPGGEGPATIKTFRTPELPPSSAHRSHLKHRHPHHYKPSPERY
notes: anosmin-1, human, product of the ANOS1 gene; also called anosmin-1 WT; WT; source: 293 T cells (pSecTag2 vector), conditioned media, purified (HisTrap HP column, PD-10 column)
For the molecule B1, the Kd was 32 nM, the koff is 0.0011 s⁻¹ and the kon was 35000 M⁻¹ s⁻¹.

B2: Recombinant human anosmin-1 Δ2–4 deletion mutant (domain or fragment)
chain: AGPGAAAARRLDESLSAGSVQRARCASRCLSLQITRISAFFQHFQNNGSLVWCQNHKQCSKCLEPCKESGDLRKHQCQSFCEPLFPKKSYECLTSCEFLKYILLVKQGDCPAPEKASGFAAACVESCEVDNECSGVKKCCSNGCGHTCQVPKTLYKGVPLKPRKELRFTELQSGQLEVKWSSKFNISIEPVIYVVQRRWNYGIHPSEDDATHWQTVAQTTDERVQLTDIRPSRWYQFRVAAVNVHGTRGFTAPSKHFRSSKDP
modifications: secreted from 293T cells (pSecTag2; vector signal and His tag left out), likely N-glycosylated; cysteine box + WAP + first FnIII kept, FnIII 2-4 and His-rich region deleted; C-terminal limit taken …
Take B2: the Kd was 1400 nM, the koff is 0.046 s⁻¹ and the kon is 34000 M⁻¹ s⁻¹.
